# Source: the supplement of paper PMC11316812
# ± gives the standard deviation of the averaged measurements.
# Assays:
# MCF7 = assay: percentage of EdU-negative (G0-arrested) nuclei per well, 72 h; higher = more G0 arrest; conditions: reference: sequence is the full UniProt precursor, the tested protein was the secreted form or ectodomain
# hTERT-HMEC = assay: as above; conditions: reference: sequence is the full UniProt precursor, the tested protein was the secreted form or ectodomain
# [1] = protein concentration 0.0357143 µM
# [2] = protein concentration 0.357143 µM
# [3] = protein concentration 0.0225 µM
# [4] = protein concentration 0.01125 µM
# [5] = protein concentration 0.1125 µM
# [6] = protein concentration 0.03125 µM
# [7] = protein concentration 0.3125 µM
# [8] = protein concentration 0.0215 µM
# 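Further: secreted proteins added to cultured cells, EdU pulse at the end, nuclei found by Hoechst imaging, EdU status from nuclear versus surrounding ring intensity ratio, PBS as neutral control.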
substance,measurement,setting,value
MMVVLLGATTLVLVAVAPWVLSAAAGGKNLKSPQKVEVDIIDDNFILRWNRSDESVGNVTFSFDYQKTGMDNWIKLSGCQNITSTKCNFSSLKLNVYEEIKLRIRAEKENTSSWYEVDSFTPFRKAQIGPPEVHLEAEDKAIVIHISPGTKDSVMWALDGLSFTYSLVIWKNSSGVEERIENIYSRHKIYKLSPETTYCLKVKAALLTSWKIGVYSPVHCIKTTVENELPPPENIEVSVQNQNYVLKWDYTYANMTFQVQWLHAFLKRNPGNHLYKWKQIPDCENVKTTQCVFPQNVFQKGIYLLRVQASDGNNTSFWSEEIKFDTEIQAFLLPPVFNIRSLSDSFHIYIGAPKQSGNTPVIQDYPLIYEIIFWENTSNAERKIIEKKTDVTVPNLKPLTVYCVKARAHTMDEKLNKSSVFSDAVCEKTKPGNTSKIWLIVGICIALFALPFVIYAAKVFLRCINYVFFPSLKPSSSIDEYFSEQPLKNLLLSTSEEQIEKCFIIENISTIATVEETNQTDEDHKKYSSQTSQDSGNYSNEDESESKTSEELQQDFV,percentage of EdU-negative,MCF7; [1],23.4 ± 0.79%
same,percentage of EdU-negative,MCF7; [2],31.7 ± 1.5%
same,percentage of EdU-negative,hTERT-HMEC; [1],4.55 ± 0.7%
same,percentage of EdU-negative,hTERT-HMEC; [2],5.5 ± 0.82%
MKTGHFEIVTMLLATMILVDIFQVKAEVLDMADNAFDDEYLKCTDRMEIKYVPQLLKEEKASHQQLDTVWENAKAKWAARKTQIFLPMNFKDNHGIALMAYISEAQEQTPFYHLFSEAVKMAGQSREDYIYGFQFKAFHFYLTRALQLLRKPCEASSKTVVYRTSQGTSFTFGGLNQARFGHFTLAYSAKPQAANDQLTVLSIYTCLGVDIENFLDKESERITLIPLNEVFQVSQEGAGNNLILQSINKTCSHYECAFLGGLKTENCIENLEYFQPIYVYNPGEKNQKLEDHSEKNWKLEDHGEKNQKLEDHGVKILEPTQIPGMKIPEPFPLPEDKSQGNINNPTPGPVPVPGPKSHPSASSGKLLLPQFGMVIILISVSAINLFVAL,percentage of EdU-negative,MCF7; [3],24.99 ± 0.071%
same,percentage of EdU-negative,MCF7; protein concentration 0.225 µM,27.3 ± 1.4%
same,percentage of EdU-negative,hTERT-HMEC; [3],4.51 ± 0.24%
same,percentage of EdU-negative,hTERT-HMEC; protein concentration 0.225 µM,5.22 ± 0.84%
MMLHSALGLCLLLVTVSSNLAIAIKKEKRPPQTLSRGWGDDITWVQTYEEGLFYAQKSKKPLMVIHHLEDCQYSQALKKVFAQNEEIQEMAQNKFIMLNLMHETTDKNLSPDGQYVPRIMFVDPSLTVRADIAGRYSNRLYTYEPRDLPLLIENMKKALRLIQSEL [Q8TD06],percentage of EdU-negative,MCF7; [3],26.1 ± 2.8%
same,percentage of EdU-negative,MCF7; protein concentration 0.225 µM,24.6 ± 0.5%
same,percentage of EdU-negative,hTERT-HMEC; [3],5.91 ± 1.9%
same,percentage of EdU-negative,hTERT-HMEC; protein concentration 0.225 µM,6.43 ± 1.1%
MGSPRSALSCLLLHLLVLCLQAQEGPGRGPALGRELASLFRAGREPQGVSQQHVREQSLVTDQLSRRLIRTYQLYSRTSGKHVQVLANKRINAMAEDGDPFAKLIVETDTFGSRVRVRGAETGLYICMNKKGKLIAKSNGKGKDCVFTEIVLENNYTALQNAKYEGWYMAFTRKGRPRKGSKTRQHQREVHFMKRLPRGHHTTEQSLRFEFLNYPPFTRSLRGSQRTWAPEPR,percentage of EdU-negative,MCF7; [4],25.1 ± 1.4%
same,percentage of EdU-negative,MCF7; [5],25.58 ± 0.037%
same,percentage of EdU-negative,hTERT-HMEC; [4],5.64 ± 0.65%
same,percentage of EdU-negative,hTERT-HMEC; [5],11 ± 1.7%
Q9BYZ8,percentage of EdU-negative,MCF7; protein concentration 0.02 µM,24.8 ± 0.7%
same,percentage of EdU-negative,MCF7; protein concentration 0.2 µM,29.6 ± 2.5%
same,percentage of EdU-negative,hTERT-HMEC; protein concentration 0.02 µM,5.55 ± 0.64%
same,percentage of EdU-negative,hTERT-HMEC; protein concentration 0.2 µM,19.9 ± 4.5%
MTPSRLPWLLSWVSATAWRAARSPLLCHSLRKTSSSQGGKSELVKQSLKKPKLPEGRFDAPEDSHLEKEPLEKFPDDVNPVTKEKGGPRGPEPTRYGDWERKGRCIDF [Q5VUM1],percentage of EdU-negative,MCF7; [3],28 ± 2.2%
same,percentage of EdU-negative,MCF7; protein concentration 0.225 µM,25.4 ± 1.5%
same,percentage of EdU-negative,hTERT-HMEC; [3],5.46 ± 0.82%
same,percentage of EdU-negative,hTERT-HMEC; protein concentration 0.225 µM,5.79 ± 0.17%
MPWPLLLLLAVSGAQTTRPCFPGCQCEVETFGLFDSFSLTRVDCSGLGPHIMPVPIPLDTAHLDLSSNRLEMVNESVLAGPGYTTLAGLDLSHNLLTSISPTAFSRLRYLESLDLSHNGLTALPAESFTSSPLSDVNLSHNQLREVSVSAFTTHSQGRALHVDLSHNLIHRLVPHPTRAGLPAPTIQSLNLAWNRLHAVPNLRDLPLRYLSLDGNPLAVIGPGAFAGLGGLTHLSLASLQRLPELAPSGFRELPGLQVLDLSGNPKLNWAGAEVFSGLSSLQELDLSGTNLVPLPEALLLHLPALQSVSVGQDVRCRRLVREGTYPRRPGSSPKVALHCVDTRDSAARGPTIL [Q8WUA8],percentage of EdU-negative,MCF7; [6],28 ± 1.4%
same,percentage of EdU-negative,MCF7; [7],29.1 ± 0.81%
same,percentage of EdU-negative,hTERT-HMEC; [6],5.33 ± 0.84%
same,percentage of EdU-negative,hTERT-HMEC; [7],5.25 ± 0.93%
MQCLLLLPFLLLGTVSALHLENDAPHLESLETQADLGQDLDSSKEQERDLALTEEVIQAEGEEVKASACQDNFEDEEAMESDPAALDKDFQCPREEDIVEVQGSPRCKICRYLLVRTPKTFAEAQNVCSRCYGGNLVSIHDFNFNYRIQCCTSTVNQAQVWIGGNLRGWFLWKRFCWTDGSHWNFAYWSPGQPGNGQGSCVALCTKGGYWRRAQCDKQLPFVCSF [Q9Y2Y8],percentage of EdU-negative,MCF7; [8],28.7 ± 1.2%
same,percentage of EdU-negative,MCF7; protein concentration 0.215 µM,32.1 ± 2.4%
same,percentage of EdU-negative,hTERT-HMEC; [8],5.28 ± 1.6%
same,percentage of EdU-negative,hTERT-HMEC; protein concentration 0.215 µM,8.49 ± 1.7%
